Laboratory results reported in patent US7351690B2, “Knockout identification of target-specific sites in peptides” (priority 2000, dated 2008).
Square brackets hold non-standard residues; d marks the D form. Ends that are not written are not given here. Nle = CCCC[C@H](N)C(=O)O

Key:
MC1-R = biological target: T1, MC1-R (Mus musculus, UniProt Q01727); assay: competitive inhibition binding assay, 125I-NDP-alpha-MSH, B-16 mouse melanoma cell membranes; details: for % Inhibition at 1 μM at Melanocortin Receptor 1: 1 μM test peptide, 0.4 nM 125I-NDP-alpha-MSH, B-16 mouse melanoma cell membranes
T1 construct: membranes prepared from hMC3-R, hMC4-R, hMC5-R, and B-16 mouse melanoma cells (containing MC1-R); endogenous in cells; host or cells: B-16 mouse melanoma cells (membranes)
In short: (§1)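 Membranes from hMC3-R, hMC4-R, hMC5-R or B-16 cells (MC1-R) incubated 90 min at room temperature with 0.4 nM 125I-NDP-alpha-MSH and rhenium-complexed test peptide, typically 1 μM, in HEPES pH 7.2 with Mg/Ca/K. Filter-bound radioactivity counted; % inhibition of specific binding (1 μM alpha-MSH defines nonspecific), triplicate means.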

hMC3-R = biological target: T2, hMC3-R (Homo sapiens, UniProt P41968); assay: competitive inhibition binding assay, 125I-NDP-alpha-MSH, hMC3-R membranes; details: for % Inhibition at 1 μM at Melanocortin Receptor 3: 1 μM test peptide, 0.4 nM 125I-NDP-alpha-MSH, hMC3-R membranes
T2 construct: expressed in transfected cells
In short: as §1

hMC4-R = biological target: T3, hMC4-R (Homo sapiens, UniProt P32245); assay: competitive inhibition binding assay, 125I-NDP-alpha-MSH, hMC4-R membranes; details: for % Inhibition at 1 μM at Melanocortin Receptor 4: 1 μM test peptide, 0.4 nM 125I-NDP-alpha-MSH, hMC4-R membranes
T3 construct: expressed in transfected cells
In short: as §1

hMC5-R = biological target: T4, hMC5-R (Homo sapiens, UniProt P33032); assay: competitive inhibition binding assay, 125I-NDP-alpha-MSH, hMC5-R membranes; details: for % Inhibition at 1 μM at Melanocortin Receptor 5: 1 μM test peptide, 0.4 nM 125I-NDP-alpha-MSH, hMC5-R membranes
T4 construct: expressed in transfected cells
In short: as §1

T4 sequence (P33032 whole entry): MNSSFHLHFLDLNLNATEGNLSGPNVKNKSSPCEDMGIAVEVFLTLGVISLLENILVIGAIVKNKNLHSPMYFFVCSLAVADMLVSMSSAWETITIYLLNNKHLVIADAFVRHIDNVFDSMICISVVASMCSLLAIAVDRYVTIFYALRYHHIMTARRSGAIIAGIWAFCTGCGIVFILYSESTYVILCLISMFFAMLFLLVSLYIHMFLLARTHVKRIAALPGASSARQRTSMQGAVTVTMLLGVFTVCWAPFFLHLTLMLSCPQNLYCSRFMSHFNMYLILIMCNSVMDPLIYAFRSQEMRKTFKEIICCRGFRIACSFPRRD
T2 sequence (P41968 whole entry): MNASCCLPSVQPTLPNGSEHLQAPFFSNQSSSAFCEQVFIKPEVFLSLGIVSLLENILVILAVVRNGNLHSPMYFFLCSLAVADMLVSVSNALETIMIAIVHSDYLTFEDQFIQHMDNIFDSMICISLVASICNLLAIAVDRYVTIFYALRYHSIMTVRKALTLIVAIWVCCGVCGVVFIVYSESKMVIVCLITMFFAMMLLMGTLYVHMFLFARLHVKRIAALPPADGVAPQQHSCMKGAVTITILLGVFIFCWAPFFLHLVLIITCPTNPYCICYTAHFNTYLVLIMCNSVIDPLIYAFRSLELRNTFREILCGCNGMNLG
T3 sequence (P32245 whole entry): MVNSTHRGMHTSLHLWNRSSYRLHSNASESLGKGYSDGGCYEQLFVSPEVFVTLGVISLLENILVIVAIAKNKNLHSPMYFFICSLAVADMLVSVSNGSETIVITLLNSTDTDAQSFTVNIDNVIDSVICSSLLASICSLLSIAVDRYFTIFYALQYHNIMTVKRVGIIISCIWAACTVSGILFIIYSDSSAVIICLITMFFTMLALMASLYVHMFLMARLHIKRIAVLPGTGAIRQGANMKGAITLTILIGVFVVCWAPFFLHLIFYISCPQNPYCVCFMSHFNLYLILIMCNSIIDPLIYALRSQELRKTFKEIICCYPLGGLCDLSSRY
T1 sequence (Q01727 whole entry): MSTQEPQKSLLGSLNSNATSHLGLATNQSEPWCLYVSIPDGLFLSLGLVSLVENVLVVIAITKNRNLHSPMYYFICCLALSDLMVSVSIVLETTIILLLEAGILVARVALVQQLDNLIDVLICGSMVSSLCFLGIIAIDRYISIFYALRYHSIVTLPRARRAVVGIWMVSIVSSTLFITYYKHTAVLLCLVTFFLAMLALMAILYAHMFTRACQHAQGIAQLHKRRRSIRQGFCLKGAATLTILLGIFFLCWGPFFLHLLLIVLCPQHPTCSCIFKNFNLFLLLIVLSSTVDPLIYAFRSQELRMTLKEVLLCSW

Substance | % Inhibition at 1 μM at Melanocortin Receptor 1 (MC1-R) | % Inhibition at 1 μM at Melanocortin Receptor 3 (hMC3-R) | % Inhibition at 1 μM at Melanocortin Receptor 4 (hMC4-R) | % Inhibition at 1 μM at Melanocortin Receptor 5 (hMC5-R) | binding to MC1-R, in words (MC1-R) | binding to MC3-R, in words (hMC3-R) | binding to MC4-R, in words (hMC4-R) | binding to MC5-R, in words (hMC5-R)
Tyr-Val-Nle-Gly-His-D-Phe-Arg-Trp-Asp-Arg-Cys-Phe-NH2 (YV[Nle]GH[dF]RWDRCF-NH2; also: Re complex) [3-2] | 99% | 91% | 89% | 100% |  |  |  | 
Tyr-Val-Nle-Gly-His-D-Phe-Arg-Trp-Asp-Arg-Phe-Cys-NH2 (FRWDRFC; Tyr-Val-Nle-Gly-His N-term; D-residue; amide; printed: Phe-Arg-Trp-Asp-Arg-Phe-Cys-) [3-1] | 95% | 96% | 98% | 102% |  |  |  | 
Tyr-Val-Nle-Gly-His-D-Phe-Arg-Trp-Asp-Cys-Arg-Phe-NH2 (YV[Nle]GH[dF]RWDCRF-NH2; also: Re complex) [3-3] | 99% | 95% | 99% | 99% |  |  |  | 
Tyr-Val-Nle-Gly-His-D-Phe-Arg-Trp-Asp-Cys-Phe-NH2 (YV[Nle]GH[dF]RWDCF-NH2; numbers in words are those of the source; also: oxorhenium(V) N3S1 chelate complex (Re=O)) [5-2] | 95% | 39% | 58% | 61% |  |  |  | 
Tyr-Val-Nle-Gly-His-D-Phe-Arg-Trp-Cys-Arg-Phe-NH2 (YV[Nle]GH[dF]RWCRF-NH2; numbers in words are those of the source; also: oxorhenium(V) N3S1 chelate complex (Re=O)) [5-3] | 100% | 93% | 97% | 100% |  |  |  | 
Tyr-Val-Nle-Gly-His-D-Phe-Arg-Trp-Cys-Asp-Arg-Phe-NH2 (YV[Nle]GH[dF]RWCDRF-NH2; also: Re complex) [3-4] | 98% | 88% | 94% | 100% |  |  |  | 
Tyr-Val-Nle-Gly-His-D-Phe-Cys-Arg-Trp-Asp-Arg-Phe-NH2 (YV[Nle]GH[dF]CRWDRF-NH2; also: Re complex) [3-6] | 52% | 20% | 31% | 31% |  |  |  | 
Tyr-Val-Nle-Gly-His-D-Phe-Cys-Trp-Asp-Arg-Phe-NH2 (YV[Nle]GH[dF]CWDRF-NH2; numbers in words are those of the source; also: oxorhenium(V) N3S1 chelate complex (Re=O)) [5-5] | 67% | 15% | 26% | 28% |  |  |  | 
Tyr-Val-Nle-Gly-His-Phe-Arg-Cys-Trp-Asp-Arg-Phe-NH2 (YV[Nle]GHFRCWDRF-NH2; numbers in words are those of the source; also: oxorhenium(V) N3S1 chelate (Re=O) with Cys) [4-5] | 89% | 87% | 74% | 68% | preserved all receptor binding | preserved all receptor binding | preserved all receptor binding | preserved all receptor binding
Tyr-Val-Nle-Gly-His-Phe-Arg-Trp-Asp-Arg-Cys-Phe-NH2 (YV[Nle]GHFRWDRCF-NH2; numbers in words are those of the source; also: oxorhenium(V) N3S1 chelate (Re=O) with Cys) [4-2] | 75% | 49% | 23% | 51% |  |  |  | 
Tyr-Val-Nle-Gly-His-Phe-Arg-Trp-Asp-Arg-Phe-Cys-NH2 (GHFRWDRFC; N-terminal Tyr-Val-Nle; C-terminal amide; printed: Gly-His-Phe-Arg-Trp-Asp-Arg-Phe-Cys-) [4-1] | 56% | 69% | 36% | 41% |  |  |  | 
Tyr-Val-Nle-Gly-His-Phe-Arg-Trp-Asp-Arg-Phe-NH2 (GHFRWDRF; N-terminal Tyr-Val-Nle, C-terminal amide; printed: Gly-His-Phe-Arg-Trp-Asp-Arg-Phe-) [Parent, reference compound] |  |  |  |  | high affinity | high affinity | moderate affinity | moderate affinity
Tyr-Val-Nle-Gly-His-Phe-Arg-Trp-Asp-Cys-Arg-Phe-NH2 (YV[Nle]GHFRWDCRF-NH2; numbers in words are those of the source; also: oxorhenium(V) N3S1 chelate (Re=O) with Cys) [4-3] | 44% | 18% | 23% | 65% |  |  |  | 
Tyr-Val-Nle-Gly-His-Phe-Arg-Trp-Cys-Asp-Arg-Phe-NH2 (YV[Nle]GHFRWCDRF-NH2; numbers in words are those of the source; also: oxorhenium(V) N3S1 chelate (Re=O) with Cys) [4-4] | 52% | 20% | 39% | 47% |  |  |  | 
Tyr-Val-Nle-Gly-His-Phe-Cys-Arg-Trp-Asp-Arg-Phe-NH2 (YV[Nle]GHFCRWDRF-NH2; numbers in words are those of the source; also: oxorhenium(V) N3S1 chelate (Re=O) with Cys) [4-6] | −8% | 5% | −2% | 24% |  |  |  | 
YVCGH[dF]RWDRF-NH2 [5-9] | 89% | 53% | 66% | 53% |  |  |  | 
